{"source": "patent WO2021136808A1", "about": "(dated 2021)", "binders": {"B1": {"name": "HHC MET (VHH)", "chain": "EVQLVESGGGLVQAGGSLRLSCAASGGTFSFYGMGWFRQAPGKEQEFVADIRTSAGRTYYADSVKGRFTISRDNAKNTVYLQMNSLKPEDTAVYYCAAEMSGISGWDYWGQGTQVTVSSGGGGSGGGSEVQLVESGGGLVQAGGSLRLSCAASGGTFSFYGMGWFRQAPGKEQEFVADIRTSAGRTYYADSVKGRFTISRDNAKNTVYLQMNSLKPEDTAVYYCAAEMSGISGWDYWGQGTQVTVSS", "notes": "Single polypeptide expressed in E. coli; In the ELISA it stood as free protein in rat plasma (calibration standards and samples); also called free HHC MET"}}, "molecular_target": "T1, human CTLA-4 (AA Ala37-Ser160) - Fc Tag fusion protein (AcroBiosystem, catalog no. CT4-H5255) (human, UniProt P16410 37-160)", "T1 construct": "range 37-160; Bought reagent, coated to the ELISA plate wells as capture reagent; also called human CTLA-4 - Fc Tag fusion protein; not shown: Fc tag", "T1 sequence (looked up)": "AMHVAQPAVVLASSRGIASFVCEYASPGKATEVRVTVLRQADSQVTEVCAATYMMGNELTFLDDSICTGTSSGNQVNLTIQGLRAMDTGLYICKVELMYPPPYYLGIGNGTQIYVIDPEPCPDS", "test": "in-house sandwich ELISA, CTLA-4-Fc coated on plate, HHC MET in rat plasma", "data": [{"binder": "B1", "values": [{"measurement": "binding result", "value": "binds"}]}]}
